In US20260226187A1 (BIOATLA, published 2026):

How the values were obtained:
Experiment in all cases: cell-based or functional assay
[1] = molecular target: T1, Human EpCAM expressed on cells (CHO-hEpCAM, HCT116) (human, UniProt P16422 24-314)
T1 sequence (looked up): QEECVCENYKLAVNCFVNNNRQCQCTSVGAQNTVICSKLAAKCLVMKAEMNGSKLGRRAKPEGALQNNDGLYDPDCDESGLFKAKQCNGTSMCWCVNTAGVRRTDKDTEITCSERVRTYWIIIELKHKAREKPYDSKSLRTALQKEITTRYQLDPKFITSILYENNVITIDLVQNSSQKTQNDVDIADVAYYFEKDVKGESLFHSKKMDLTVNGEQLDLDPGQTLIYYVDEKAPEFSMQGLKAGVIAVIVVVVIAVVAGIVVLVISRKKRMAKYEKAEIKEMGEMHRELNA

[2] = molecular target: T1, Human EpCAM expressed on cells …; remark: listed apart in the source
[3] = molecular target: T1, Human EpCAM expressed on cells …; remark: listed apart in the source
[4] = molecular target: Cynomolgus EpCAM expressed on CHO cells (cynomolgus monkey)
Cynomolgus EpCAM expressed on CHO cells (cynomolgus monkey), sequence (Q1WER1 24-314): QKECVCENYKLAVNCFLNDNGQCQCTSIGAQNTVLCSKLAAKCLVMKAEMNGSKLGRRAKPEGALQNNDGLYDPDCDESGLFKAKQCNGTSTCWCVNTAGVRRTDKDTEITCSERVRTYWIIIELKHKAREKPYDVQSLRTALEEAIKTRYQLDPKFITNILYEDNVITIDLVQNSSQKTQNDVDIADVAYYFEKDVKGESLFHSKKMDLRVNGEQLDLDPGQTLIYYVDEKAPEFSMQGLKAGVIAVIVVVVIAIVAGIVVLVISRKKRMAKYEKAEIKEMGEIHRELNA

[5] = molecular target: Cynomolgus EpCAM expressed on CHO cells (cynomolgus monkey); remark: listed apart in the source
[6] = molecular target: T1, Human EpCAM expressed on cells …; remark: listed apart in the source

B1: BA3182 (bispecific antibody, human IgG1, kappa, N297Q)
light: DIQMTQSPSSLSASVGDRVTITCSASSSISYMHWYQQKPGQAPRLLIYSTSNLASGVPSRFSGSGSGTDFTFTISSLEAEDAATYYCHQWSTYHTFGQGTKVEIKRTVAAPSVFIFPPSDEQLKSGTASVVCLLNNFYPREAKVQWKVDNALQSGNSQESVTEQDSKDSTYSLSSTLTLSKADYEKHKVYACEVTHQGLSSPVTKSFNRGECSRSGGGGEVQLVESGGGLVQPGGSLRLSCAASGFTFNTYAMNWVRQAPGKGLEWVARIRSKYNNYATYYADSVKDRFTISRDDSKNSLYLQMNSLKTEDTAVYYCVRHSNFGNSKVSWFAYWGQGTLVTVSSGGSGGSGGSGGSGGQAVVTQEPSLTVSPGGTVTLTCRSSAGAVTTSNYDNWVQQKPGQAPRGLIGGTNKRAPWTPARFSGSLLGGKAALTITGAQAEDEADYYCALWYSNLWVFGGGTKLTVLSR
heavy: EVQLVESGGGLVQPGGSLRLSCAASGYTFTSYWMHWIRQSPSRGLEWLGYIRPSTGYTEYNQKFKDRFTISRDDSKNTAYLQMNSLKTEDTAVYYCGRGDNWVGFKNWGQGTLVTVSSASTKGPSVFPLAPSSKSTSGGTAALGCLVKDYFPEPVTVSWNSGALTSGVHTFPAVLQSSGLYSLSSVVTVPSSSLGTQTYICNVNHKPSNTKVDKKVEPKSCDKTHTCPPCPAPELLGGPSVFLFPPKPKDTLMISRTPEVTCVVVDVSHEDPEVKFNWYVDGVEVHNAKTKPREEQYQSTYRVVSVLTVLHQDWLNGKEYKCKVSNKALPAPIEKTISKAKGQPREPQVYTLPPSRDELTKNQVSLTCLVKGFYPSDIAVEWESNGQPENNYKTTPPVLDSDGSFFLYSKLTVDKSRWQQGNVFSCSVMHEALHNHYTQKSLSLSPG
notes: Human IgG1,k aglycosylated mutant (N297Q) with an anti-CD3 scFv on the C-terminus of each light chain; 200 kDa used for molar concentrations; also called BAP150.31-BF45; BA150.31-BF45
EC50, T cell activation bioassay (NFAT luminescence), HCT116 cells, pH 6.0, Experiment-1 [1]: 0.292 nM | EC50, T cell activation bioassay (NFAT luminescence), HCT116 cells, pH 6.0, Experiment-2 [1]: 0.288 nM | EC50, T cell activation bioassay (NFAT luminescence), HCT116 cells, pH 6.0, Experiment-3 [1]: 0.238 nM | EC50, T cell activation bioassay (NFAT luminescence), HCT116 cells, pH 7.4, Experiment-1 [1]: 1.86 nM | EC50, T cell activation bioassay (NFAT luminescence), HCT116 cells, pH 7.4, Experiment-2 [1]: 2.15 nM | EC50, T cell activation bioassay (NFAT luminescence), HCT116 cells, pH 7.4, Experiment-3 [1]: 1.96 nM | EC50, T cell activation bioassay (NFAT luminescence), CHO hEpCAM cells, pH 6.0, Experiment-1 [2]: 51 pM | EC50, T cell activation bioassay (NFAT luminescence), CHO hEpCAM cells, pH 6.0, Experiment-2 [2]: 49 pM | EC50, T cell activation bioassay (NFAT luminescence), CHO hEpCAM cells, pH 6.0, Experiment-3 [2]: 48 pM | EC50, T cell activation bioassay (NFAT luminescence), CHO hEpCAM cells, pH 7.4, Experiment-1 [2]: 0.358 nM | EC50, T cell activation bioassay (NFAT luminescence), CHO hEpCAM cells, pH 7.4, Experiment-2 [2]: 0.387 nM | EC50, T cell activation bioassay (NFAT luminescence), CHO hEpCAM cells, pH 7.4, Experiment-3 [2]: 0.403 nM | EC50 IL-2 release, human PBMC co-cultured with HCT116, pH 6.5, donor 3371 [3]: 4.56 nM | EC50 IL-2 release, human PBMC co-cultured with HCT116, pH 6.5, donor 3378 [3]: 7.85 nM | EC50 IL-2 release, human PBMC co-cultured with HCT116, pH 6.5, donor 3397 [3]: 9.82 nM | EC50 IL-2 release, human PBMC co-cultured with HCT116, pH 6.5, donor 3411 [3]: 4.92 nM | EC50 IL-2 release, human PBMC co-cultured with HCT116, pH 6.5, donor 75377 [3]: 23.2 nM | EC50 IL-2 release, human PBMC co-cultured with HCT116, pH 6.5, donor 77535 [3]: 19.7 nM | EC50 IL-2 release, human PBMC co-cultured with HCT116, pH 6.5, donor 85639 [3]: 25.6 nM | EC50 IL-2 release, human PBMC co-cultured with HCT116, pH 6.5, donor 97529 [3]: 15 nM | EC50 INFγ release, human PBMC co-cultured with HCT116, pH 6.5, donor 3371 [3]: 5.28 nM | EC50 INFγ release, human PBMC co-cultured with HCT116, pH 6.5, donor 3378 [3]: 6.45 nM | EC50 INFγ release, human PBMC co-cultured with HCT116, pH 6.5, donor 3397 [3]: 10.1 nM | EC50 INFγ release, human PBMC co-cultured with HCT116, pH 6.5, donor 3411 [3]: 2.54 nM | EC50 INFγ release, human PBMC co-cultured with HCT116, pH 6.5, donor 75377 [3]: 2.53 nM | EC50 INFγ release, human PBMC co-cultured with HCT116, pH 6.5, donor 77535 [3]: 24 nM | EC50 INFγ release, human PBMC co-cultured with HCT116, pH 6.5, donor 97529 [3]: 2.52 nM | EC50, T cell activation bioassay (NFAT luminescence), CHO cynoEpCAM cells, pH 6.0, Experiment-1 [4]: 0.545 nM | EC50, T cell activation bioassay (NFAT luminescence), CHO cynoEpCAM cells, pH 6.0, Experiment-2 [4]: 0.597 nM | EC50, T cell activation bioassay (NFAT luminescence), CHO cynoEpCAM cells, pH 6.0, Experiment-3 [4]: 0.586 nM | EC50, T cell activation bioassay (NFAT luminescence), CHO cynoEpCAM cells, pH 7.4, Experiment-1 [4]: 9.46 nM | EC50, T cell activation bioassay (NFAT luminescence), CHO cynoEpCAM cells, pH 7.4, Experiment-2 [4]: 8.82 nM | EC50, T cell activation bioassay (NFAT luminescence), CHO cynoEpCAM cells, pH 7.4, Experiment-3 [4]: 10.7 nM | EC50, cytolysis of CHO cynoEpCAM cells by cyno PBMC, pH 6.5, Experiment-1 [5]: 18.9 pM | EC50, cytolysis of CHO cynoEpCAM cells by cyno PBMC, pH 6.5, Experiment-2 [5]: 15.9 pM | EC50, cytolysis of CHO cynoEpCAM cells by cyno PBMC, pH 6.5, Experiment-3 [5]: 17.4 pM | EC50, cytolysis of CHO cynoEpCAM cells by cyno PBMC, pH 7.4, Experiment-1 [5]: 172 pM | EC50, cytolysis of CHO cynoEpCAM cells by cyno PBMC, pH 7.4, Experiment-2 [5]: 215 pM | EC50, cytolysis of CHO cynoEpCAM cells by cyno PBMC, pH 7.4, Experiment-3 [5]: 167 pM | EC50, cytolysis of HCT116 cells by human PBMC, pH 6.5, donor 13143 [6]: 1.66 pM | EC50, cytolysis of HCT116 cells by human PBMC, pH 6.5, donor 13290 [6]: 1.03 pM | EC50, cytolysis of HCT116 cells by human PBMC, pH 6.5, donor 13292 [6]: 2.05 pM | EC50, cytolysis of HCT116 cells by human PBMC, pH 6.5, donor 13371 [6]: 0.79 pM | EC50, cytolysis of HCT116 cells by human PBMC, pH 6.5, donor 13397 [6]: 1.19 pM | EC50, cytolysis of HCT116 cells by human PBMC, pH 6.5, donor 13411 [6]: 1.39 pM | EC50, cytolysis of HCT116 cells by human PBMC, pH 6.5, donor 75377 [6]: 0.6 pM | EC50, cytolysis of HCT116 cells by human PBMC, pH 6.5, donor 77535 [6]: 1.52 pM | EC50, cytolysis of HCT116 cells by human PBMC, pH 6.5, donor 85639 [6]: 0.88 pM | EC50, cytolysis of HCT116 cells by human PBMC, pH 6.5, donor 97529 [6]: 2.95 pM | EC50, cytolysis of HCT116 cells by human PBMC, pH 7.4, donor 13143 [6]: 8.73 pM | EC50, cytolysis of HCT116 cells by human PBMC, pH 7.4, donor 13290 [6]: 4.37 pM | EC50, cytolysis of HCT116 cells by human PBMC, pH 7.4, donor 13292 [6]: 6.35 pM | EC50, cytolysis of HCT116 cells by human PBMC, pH 7.4, donor 13371 [6]: 6.96 pM | EC50, cytolysis of HCT116 cells by human PBMC, pH 7.4, donor 13397 [6]: 5.9 pM | EC50, cytolysis of HCT116 cells by human PBMC, pH 7.4, donor 13411 [6]: 1.36 pM
